Paper PMC2873526

Columns and labels:
[1] = biological target: PfNapS residues 29-221 (crystallised construct) (Plasmodium falciparum); assay: crystal structure; hanging drop vapour diffusion at 20°C, 0.2 M di-ammonium tartrate, 20% PEG 3350; space group P212121, three dimers in the asymmetric unit; Se-SAD at 3.2 Å, native data to 2.8 Å
histone H3 = histone H3 (UniProt P68432); assay: fluorescence spectroscopy (acrylodan-labelled PfNapS titrated with histone); settings: read off a plot

Row | Substance | stoichiometry N [1] | response (histone H3; Histone H3 5 microgram) | response (histone H3; Histone H3 10 microgram) | response (histone H3; Histone H3 15 microgram) | response (histone H3; Histone H3 20 microgram) | response (histone H3; Histone H3 25 microgram) | response (histone H3; Histone H3 30 microgram)
1 | PfNapS residues 29-221 (crystallised construct) (domain or fragment) | 2 |  |  |  |  |  | 
2 | PfNapS labelled with acrylodan (PfNapS^dye) C47A |  | 0.55 | 0.56 | 0.6 | 0.61 | 0.64 | 0.63
